According to publication PMC9569640 (2022):
Square brackets hold non-standard residues; d marks the D form. Ends that are not written are not given here. FAM = FAM, a fluorescent label attached at the N-terminus of the peptide; pY = N[C@@H](Cc1ccc(OP(=O)(O)O)cc1)C(=O)O

Assays:
Assay in all cases: fluorescence polarization
CagA EPIYA-A 13-mer = CagA EPIYA-A 13-mer (Helicobacter pylori)
CagA EPIYA-C 13-mer = target: T1, CagA EPIYA-C 13-mer (Helicobacter pylori)
T1 chain: {FAM}-SPEPI[pY]ATIDDLG

CagA EPIYA-D 13-mer = CagA EPIYA-D 13-mer (Helicobacter pylori)
CagA EPIYA-B 13-mer = target: T2, CagA EPIYA-B 13-mer (Helicobacter pylori)
T2 chain: {FAM}-PEEPI[pY]AQVAKKV

CagA EPIYA-CD 8-mer = target: T3, CagA EPIYA-CD 8-mer (Helicobacter pylori)
T3 chain: {FAM}-EPI[pY]ATID

B1: SHIP2 SH2 (protein)
chain: APSWYHRDLSRAAAEELLARAGRDGSFLVRDSESVAGAFALCVLYQKHVHTYRILPDGEDFLAVQTSQGVPVRRFQTLGELIGLYAQPNQGLVCALLLPVEGE
- Kd (CagA EPIYA-A 13-mer): 23.4 µM
- Kd (CagA EPIYA-C 13-mer): 2.96 µM
- Kd (CagA EPIYA-D 13-mer): 3.16 µM
- Kd (CagA EPIYA-B 13-mer): 18.6 µM
- Kd (CagA EPIYA-CD 8-mer): 4.45 µM
